Starred links: 1 amine or outer side, 2 acyl side, 3 side chain; linkers in the order of their positions; H or OH if unused. Non-standard residues stand in square brackets, D forms with d. Groups on a side chain read outwards from the residue. No end group written: not given here. *: point of attachment. dpeg = —[CO(CH2)O(CH2)2O(CH2)NH]— spacer, O=C(COCCOCN[*:1])[*:2]; C20 diacid = O=C(O)CCCCCCCCCCCCCCCCCCC(=O)*; γGlu = O=C(O)[C@H](CCC(=O)[*:2])N[*:1]
T1: NPY2R
T1 sequence (P49146 1-381, species assumed, looked up): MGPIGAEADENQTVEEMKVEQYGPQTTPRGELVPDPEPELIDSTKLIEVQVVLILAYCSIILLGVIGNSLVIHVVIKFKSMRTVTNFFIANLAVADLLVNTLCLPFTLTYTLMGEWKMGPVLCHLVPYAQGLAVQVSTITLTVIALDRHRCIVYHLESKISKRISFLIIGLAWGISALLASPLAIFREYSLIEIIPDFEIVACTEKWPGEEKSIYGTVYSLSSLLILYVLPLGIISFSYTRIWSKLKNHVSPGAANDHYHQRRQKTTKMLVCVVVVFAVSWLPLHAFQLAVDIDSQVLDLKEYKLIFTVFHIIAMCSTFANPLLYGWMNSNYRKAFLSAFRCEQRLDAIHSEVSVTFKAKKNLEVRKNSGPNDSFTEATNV

T2: NPY5R
T2 sequence (Q15761 1-445, species assumed, looked up): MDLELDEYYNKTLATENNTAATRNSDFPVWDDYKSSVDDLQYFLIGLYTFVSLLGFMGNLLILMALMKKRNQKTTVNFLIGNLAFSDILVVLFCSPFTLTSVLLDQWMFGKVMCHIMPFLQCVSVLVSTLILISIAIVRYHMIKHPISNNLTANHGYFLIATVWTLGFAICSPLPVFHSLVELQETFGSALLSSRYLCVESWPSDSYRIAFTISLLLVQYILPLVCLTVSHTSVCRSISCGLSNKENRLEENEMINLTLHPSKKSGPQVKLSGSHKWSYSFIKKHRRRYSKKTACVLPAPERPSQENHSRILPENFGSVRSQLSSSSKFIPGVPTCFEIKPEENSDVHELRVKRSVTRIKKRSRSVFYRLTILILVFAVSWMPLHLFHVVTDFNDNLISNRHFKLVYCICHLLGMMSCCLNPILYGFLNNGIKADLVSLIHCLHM

B1: Compound A18 (peptide)
peptide: PKPEAPG[dK]([γGlu-dpeg-dpeg-γGlu-C20 diacid])DASPEEWNRYYADLRHYLNWLTRQRF-NH2
modifications: N-terminus assumed
SMILES: CC(C)C[C@H](NC(=O)[C@H](CC(=O)O)NC(=O)[C@H](C)NC(=O)[C@H](Cc1ccc(O)cc1)NC(=O)[C@H](Cc1ccc(O)cc1)NC(=O)[C@H](CCCNC(=N)N)NC(=O)[C@H](CC(N)=O)NC(=O)[C@H](Cc1c[nH]c2ccccc12)NC(=O)[C@H](CCC(=O)O)NC(=O)[C@H](CCC(=O)O)NC(=O)[C@@H]1CCCN1C(=O)[C@H](CO)NC(=O)[C@H](C)NC(=O)[C@H](CC(=O)O)NC(=O)[C@@H](CCCCNC(=O)CC[C@H](NC(=O)COCCOCNC(=O)COCCOCNC(=O)CC[C@H](NC(=O)CCCCCCCCCCCCCCCCCCC(=O)O)C(=O)O)C(=O)O)NC(=O)CNC(=O)[C@@H]1CCCN1C(=O)[C@H](C)NC(=O)[C@H](CCC(=O)O)NC(=O)[C@@H]1CCCN1C(=O)[C@H](CCCCN)NC(=O)[C@@H]1CCCN1)C(=O)N[C@@H](CCCNC(=N)N)C(=O)N[C@@H](Cc1c[nH]cn1)C(=O)N[C@@H](Cc1ccc(O)cc1)C(=O)N[C@@H](CC(C)C)C(=O)N[C@@H](CC(N)=O)C(=O)N[C@@H](Cc1c[nH]c2ccccc12)C(=O)N[C@@H](CC(C)C)C(=O)N[C@H](C(=O)N[C@@H](CCCNC(=N)N)C(=O)N[C@@H](CCC(N)=O)C(=O)N[C@@H](CCCNC(=N)N)C(=O)N[C@@H](Cc1ccccc1)C(N)=O)[C@@H](C)O
B2: Compound A19 (peptide)
peptide: PKPEKPGK([γGlu-γGlu-C20 diacid])DASPEEWNRYYKDLRHYLNWLTRQRF-NH2
modifications: N-terminus assumed
SMILES: CC(C)C[C@H](NC(=O)[C@H](CC(=O)O)NC(=O)[C@H](CCCCN)NC(=O)[C@H](Cc1ccc(O)cc1)NC(=O)[C@H](Cc1ccc(O)cc1)NC(=O)[C@H](CCCNC(=N)N)NC(=O)[C@H](CC(N)=O)NC(=O)[C@H](Cc1c[nH]c2ccccc12)NC(=O)[C@H](CCC(=O)O)NC(=O)[C@H](CCC(=O)O)NC(=O)[C@@H]1CCCN1C(=O)[C@H](CO)NC(=O)[C@H](C)NC(=O)[C@H](CC(=O)O)NC(=O)[C@H](CCCCNC(=O)CC[C@H](NC(=O)CC[C@H](NC(=O)CCCCCCCCCCCCCCCCCCC(=O)O)C(=O)O)C(=O)O)NC(=O)CNC(=O)[C@@H]1CCCN1C(=O)[C@H](CCCCN)NC(=O)[C@H](CCC(=O)O)NC(=O)[C@@H]1CCCN1C(=O)[C@H](CCCCN)NC(=O)[C@@H]1CCCN1)C(=O)N[C@@H](CCCNC(=N)N)C(=O)N[C@@H](Cc1c[nH]cn1)C(=O)N[C@@H](Cc1ccc(O)cc1)C(=O)N[C@@H](CC(C)C)C(=O)N[C@@H](CC(N)=O)C(=O)N[C@@H](Cc1c[nH]c2ccccc12)C(=O)N[C@@H](CC(C)C)C(=O)N[C@H](C(=O)N[C@@H](CCCNC(=N)N)C(=O)N[C@@H](CCC(N)=O)C(=O)N[C@@H](CCCNC(=N)N)C(=O)N[C@@H](Cc1ccccc1)C(N)=O)[C@@H](C)O
B3: Compound A17 (peptide)
peptide: PKPEAPGK([γGlu-dpeg-dpeg-γGlu-C20 diacid])DASPEEWNRYYADLRHYLNWLTRQRF-NH2
modifications: N-terminus assumed
SMILES: CC(C)C[C@H](NC(=O)[C@H](CC(=O)O)NC(=O)[C@H](C)NC(=O)[C@H](Cc1ccc(O)cc1)NC(=O)[C@H](Cc1ccc(O)cc1)NC(=O)[C@H](CCCNC(=N)N)NC(=O)[C@H](CC(N)=O)NC(=O)[C@H](Cc1c[nH]c2ccccc12)NC(=O)[C@H](CCC(=O)O)NC(=O)[C@H](CCC(=O)O)NC(=O)[C@@H]1CCCN1C(=O)[C@H](CO)NC(=O)[C@H](C)NC(=O)[C@H](CC(=O)O)NC(=O)[C@H](CCCCNC(=O)CC[C@H](NC(=O)COCCOCNC(=O)COCCOCNC(=O)CC[C@H](NC(=O)CCCCCCCCCCCCCCCCCCC(=O)O)C(=O)O)C(=O)O)NC(=O)CNC(=O)[C@@H]1CCCN1C(=O)[C@H](C)NC(=O)[C@H](CCC(=O)O)NC(=O)[C@@H]1CCCN1C(=O)[C@H](CCCCN)NC(=O)[C@@H]1CCCN1)C(=O)N[C@@H](CCCNC(=N)N)C(=O)N[C@@H](Cc1c[nH]cn1)C(=O)N[C@@H](Cc1ccc(O)cc1)C(=O)N[C@@H](CC(C)C)C(=O)N[C@@H](CC(N)=O)C(=O)N[C@@H](Cc1c[nH]c2ccccc12)C(=O)N[C@@H](CC(C)C)C(=O)N[C@H](C(=O)N[C@@H](CCCNC(=N)N)C(=O)N[C@@H](CCC(N)=O)C(=O)N[C@@H](CCCNC(=N)N)C(=O)N[C@@H](Cc1ccccc1)C(N)=O)[C@@H](C)O
B4: Compound A27 (peptide)
peptide: PKPEKPGK([γGlu-γGlu-C20 diacid])DASPKEWNRYYKDLRHYLNWLTRQRF-NH2
modifications: N-terminus assumed
SMILES: CC(C)C[C@H](NC(=O)[C@H](CC(=O)O)NC(=O)[C@H](CCCCN)NC(=O)[C@H](Cc1ccc(O)cc1)NC(=O)[C@H](Cc1ccc(O)cc1)NC(=O)[C@H](CCCNC(=N)N)NC(=O)[C@H](CC(N)=O)NC(=O)[C@H](Cc1c[nH]c2ccccc12)NC(=O)[C@H](CCC(=O)O)NC(=O)[C@H](CCCCN)NC(=O)[C@@H]1CCCN1C(=O)[C@H](CO)NC(=O)[C@H](C)NC(=O)[C@H](CC(=O)O)NC(=O)[C@H](CCCCNC(=O)CC[C@H](NC(=O)CC[C@H](NC(=O)CCCCCCCCCCCCCCCCCCC(=O)O)C(=O)O)C(=O)O)NC(=O)CNC(=O)[C@@H]1CCCN1C(=O)[C@H](CCCCN)NC(=O)[C@H](CCC(=O)O)NC(=O)[C@@H]1CCCN1C(=O)[C@H](CCCCN)NC(=O)[C@@H]1CCCN1)C(=O)N[C@@H](CCCNC(=N)N)C(=O)N[C@@H](Cc1c[nH]cn1)C(=O)N[C@@H](Cc1ccc(O)cc1)C(=O)N[C@@H](CC(C)C)C(=O)N[C@@H](CC(N)=O)C(=O)N[C@@H](Cc1c[nH]c2ccccc12)C(=O)N[C@@H](CC(C)C)C(=O)N[C@H](C(=O)N[C@@H](CCCNC(=N)N)C(=O)N[C@@H](CCC(N)=O)C(=O)N[C@@H](CCCNC(=N)N)C(=O)N[C@@H](Cc1ccccc1)C(N)=O)[C@@H](C)O

Biological target: T1, NPY2R
Assay: cell-based or functional assay

Binder | NPY2R pEC50
PKPEAPGK([γGlu-γGlu-C20 diacid])DASPEEWDRYYKDLRHYLNWLTRQRF-NH2 [Compound A24] | 10.5 -Log(EC50, M)
B1 | 10.3 -Log(EC50, M)
PKPEAPGK([γGlu-γGlu-C20 diacid])DASPEEWTRYYKDLRHYLNWLTRQRF-NH2 [Compound A26] | 10.7 -Log(EC50, M)
PKPEAPGK([γGlu-γGlu-C20 diacid])DASPEEWQRYYKDLRHYLNWLTRQRF-NH2 [Compound A23] | 10.4 -Log(EC50, M)
PKPEAPGKDASPEEWNRYYK([γGlu-dpeg-dpeg-γGlu-C20 diacid])DLRHYLNWLTRQRF-NH2 [Compound A16] | 10.2 -Log(EC50, M)
B2 | 10.5 -Log(EC50, M)
PKPEAPGK([γGlu-γGlu-C20 diacid])DASPKEWNRYYKDLRHYLNWLTRQRF-NH2 [Compound A20] | 10.5 -Log(EC50, M)
PKPEAPGK([γGlu-γGlu-C20 diacid])DASPEEWSRYYKDLRHYLNWLTRQRF-NH2 [Compound A25] | 10.9 -Log(EC50, M)
PKPEAPG[dK]([γGlu-γGlu-C20 diacid])DASPEEWNRYYADLRHYLNWLTRQRF-NH2 [Compound A15] | 10.2 -Log(EC50, M)
PKPEAPGK([γGlu-γGlu-C20 diacid])DASPEEWNRYY[dK]DLRHYLNWLTRQRF-NH2 [Compound A21] | 10.4 -Log(EC50, M)
B3 | 10.2 -Log(EC50, M)
B4 | 10.7 -Log(EC50, M)

Biological target: T2, NPY5R
Assay: cell-based or functional assay

Binder | NPY5R pEC50
PKPEAPGK([γGlu-γGlu-C20 diacid])DASPEEWDRYYKDLRHYLNWLTRQRF-NH2 [Compound A24] | 8.7 -Log(EC50, M)
B1 | 9.3 -Log(EC50, M)
PKPEAPGK([γGlu-γGlu-C20 diacid])DASPEEWTRYYKDLRHYLNWLTRQRF-NH2 [Compound A26] | 8.5 -Log(EC50, M)
PKPEAPGK([γGlu-γGlu-C20 diacid])DASPEEWQRYYKDLRHYLNWLTRQRF-NH2 [Compound A23] | 8.6 -Log(EC50, M)
PKPEAPGKDASPEEWNRYYK([γGlu-dpeg-dpeg-γGlu-C20 diacid])DLRHYLNWLTRQRF-NH2 [Compound A16] | 9.1 -Log(EC50, M)
B2 | 8.7 -Log(EC50, M)
PKPEAPGK([γGlu-γGlu-C20 diacid])DASPKEWNRYYKDLRHYLNWLTRQRF-NH2 [Compound A20] | 8.7 -Log(EC50, M)
PKPEAPGK([γGlu-γGlu-C20 diacid])DASPEEWSRYYKDLRHYLNWLTRQRF-NH2 [Compound A25] | 8.4 -Log(EC50, M)
PKPEAPG[dK]([γGlu-γGlu-C20 diacid])DASPEEWNRYYADLRHYLNWLTRQRF-NH2 [Compound A15] | 8 -Log(EC50, M)
PKPEAPGK([γGlu-γGlu-C20 diacid])DASPEEWNRYY[dK]DLRHYLNWLTRQRF-NH2 [Compound A21] | 8.3 -Log(EC50, M)
B3 | 8.7 -Log(EC50, M)
B4 | 8.9 -Log(EC50, M)

From US20250084142A1 (INTARCIA THERAPEUTICS, published 2025)
